Measured values reported in patent US20090074722A1, “Products and methods for treating PTP lar diseases” (MAX-PLANCK-GESELLSCHAFT ZUR, priority 1999, published 2009).

Molecular target: T1, plakoglobin (Homo sapiens, UniProt P14923)
T1 construct: expressed in transfected cells; host or cells: human embryonic kidney 293 cells, transient, pervanadate-treated, used as lysate; the GST-PTP LARi partner was made in E. coli
T1 sequence (P14923 1-745): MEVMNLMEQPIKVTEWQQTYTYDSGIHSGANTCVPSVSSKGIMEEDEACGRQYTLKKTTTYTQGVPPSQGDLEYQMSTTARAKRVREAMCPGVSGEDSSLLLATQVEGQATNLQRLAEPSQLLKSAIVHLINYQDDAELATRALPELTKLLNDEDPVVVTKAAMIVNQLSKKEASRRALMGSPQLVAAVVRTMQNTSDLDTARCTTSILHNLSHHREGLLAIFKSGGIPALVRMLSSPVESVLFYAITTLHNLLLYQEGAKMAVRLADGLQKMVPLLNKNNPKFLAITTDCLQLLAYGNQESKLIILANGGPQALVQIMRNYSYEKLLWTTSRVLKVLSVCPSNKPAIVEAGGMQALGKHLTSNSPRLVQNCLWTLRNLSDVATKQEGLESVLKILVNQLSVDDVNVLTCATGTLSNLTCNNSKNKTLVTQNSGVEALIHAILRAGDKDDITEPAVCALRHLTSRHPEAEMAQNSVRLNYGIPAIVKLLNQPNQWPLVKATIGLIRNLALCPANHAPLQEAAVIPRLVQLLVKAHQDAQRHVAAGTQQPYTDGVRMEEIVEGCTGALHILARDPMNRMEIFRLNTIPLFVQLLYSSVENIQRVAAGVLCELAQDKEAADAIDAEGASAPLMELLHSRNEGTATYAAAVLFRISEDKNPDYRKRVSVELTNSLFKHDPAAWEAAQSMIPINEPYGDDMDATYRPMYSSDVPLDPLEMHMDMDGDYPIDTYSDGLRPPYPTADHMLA
Assay: In vitro binding assay (GST pull-down), plakoglobin
Settings: lysates of pervanadate treated 293 cells overexpressing plakoglobin
Experimental: After 24 h of serum starvation, the cells were stimulated with pervanadate for 10 minutes before lysis. Equal amounts of lysats were incubated with the GST-PTP LAR cytoplasmic fusion protein (GST-PTP LARi) or a threefold molar excess of GST. Lysates of control vector transfected 293 cells were incubated with the GST-PTP LAR cytoplasmic fusion protein (GST-PTP LARi). Complexes were immobilized on glutathione-sepharose, and precipitates were separated by SDS-PAGE. Bound proteins were analyzed by Western blotting with an anti-β-catenin antibody (left) or an antibody against plakoglobin (right). Arrows indicate the proteins of interest. Molecular mass standards in kilodaltons are shown on the left. […]
To investigate the potential association of PTP LAR with the cadherin/catenin-complex in intact cells, subconfluent human MCF7 cells were stimulated with EGF, were lysed, and were immunoprecipitated with antibodies either against PTP LAR or the cadherin/catenin-complex. Western blotting analysis with specific antibodies to β-catenin and E-cadherin (FIG. 5A) or plakoglobin and E-cadherin (FIG. 5B) detected these proteins in anti-human PTP LAR immunoprecipitates with the monoclonal antibody 11.1A against the extracellular domain of human PTP LAR and vice versa. […]

- association with plakoglobin: associate specifically
B1: GST-PTP LAR cytoplasmic: GST fusion protein comprising the entire cytoplasmic domain (amino acids 1259-1881) of human PTP LAR (protein)
chain: PEMLWVTGPVLAVILIILIVIAILLFKRKRTHSPSSKDEQSIGLKDSLLAHSSDPVEMRRLNYQTPGMRDHPPIPITDLADNIERLKANDGLKFSQEYESIDPGQQFTWENSNLEVNKPKNRYANVIAYDHSRVILTSIDGVPGSDYINANYIDGYRKQNAYIATQGPLPETMGDFWRMVWEQRTATVVMMTRLEEKSRVKCDQYWPARGTETCGLIQVTLLDTVELATYTVRTFALHKSGSSEKRELRQFQFMAWPDHGVPEYPTPILAFLRRVKACNPLDAGPMVVHCSAGVGRTGCFIVIDAMLERMKHEKTVDIYGHVTCMRSQRNYMVQTEDQYVFIHEALLEAATCGHTEVPARNLYAHIQKLGQVPPGESVTAMELEFKLLASSKAHTSRFISANLPCNKFKNRLVNIMPYELTRVCLQPIRGVEGSDYINASFLDGYRQQKAYIATQGPLAESTEDFWRMLWEHNSTIIVMLTKLREMGREKCHQYWPAERSARYQYFVVDPMAEYNMPQYILREFKVTDARDGQSRTIRQFQFTDWPEQGVPKTGEGFIDFIGQVHKTKEQFGQDGPITVHCSAGVGRTGVFITLSIVLERMRYEGVVDMFQTVKTLRTQRPAM
